Measurements taken from US20120201828A1 (Sanofi, published 2012).

Each binder was assayed against T1, EphA2 receptor on tumor cells (human, UniProt P29317 24-976) (assay: cell-based or functional assay).
T1 sequence (P29317 24-976): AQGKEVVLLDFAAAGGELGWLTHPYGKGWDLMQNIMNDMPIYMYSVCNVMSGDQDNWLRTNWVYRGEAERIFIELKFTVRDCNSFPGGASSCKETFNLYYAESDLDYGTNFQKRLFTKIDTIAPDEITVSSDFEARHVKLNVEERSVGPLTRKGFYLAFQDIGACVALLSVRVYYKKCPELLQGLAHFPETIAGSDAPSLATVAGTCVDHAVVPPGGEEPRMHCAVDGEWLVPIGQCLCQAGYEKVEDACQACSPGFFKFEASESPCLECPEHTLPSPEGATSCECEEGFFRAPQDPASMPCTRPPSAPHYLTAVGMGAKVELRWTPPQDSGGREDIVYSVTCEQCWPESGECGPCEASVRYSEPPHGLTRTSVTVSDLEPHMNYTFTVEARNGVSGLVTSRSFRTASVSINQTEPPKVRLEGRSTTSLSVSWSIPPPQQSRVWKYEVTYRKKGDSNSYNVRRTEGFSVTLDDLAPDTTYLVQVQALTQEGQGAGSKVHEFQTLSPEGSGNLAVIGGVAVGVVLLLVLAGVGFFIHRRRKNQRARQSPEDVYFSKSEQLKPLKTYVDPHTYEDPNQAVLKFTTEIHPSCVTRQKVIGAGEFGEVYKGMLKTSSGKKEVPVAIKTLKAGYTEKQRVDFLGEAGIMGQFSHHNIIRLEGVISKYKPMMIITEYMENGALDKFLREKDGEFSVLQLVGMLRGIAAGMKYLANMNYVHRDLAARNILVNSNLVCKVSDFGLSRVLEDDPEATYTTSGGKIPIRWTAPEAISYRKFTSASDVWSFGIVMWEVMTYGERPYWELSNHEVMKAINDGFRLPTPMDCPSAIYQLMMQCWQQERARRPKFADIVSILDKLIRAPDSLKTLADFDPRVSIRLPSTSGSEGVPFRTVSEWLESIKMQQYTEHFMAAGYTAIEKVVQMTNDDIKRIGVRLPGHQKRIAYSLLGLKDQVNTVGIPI

Binder	MDA-MB231 + naked 2H11 (1 uM) IC50 (nM), 14C thymidine uptake [nM]	MDA-MB231 IC50 (nM), 14C thymidine uptake [nM]	Ratio of IC50s (with naked 2H11 / alone) on MDA-MB231
hu2H11-SPDB-DM4 (DAR 3.93) (antibody, V domains shown, DM4 through SPDB linker on lysine residues, sites not given; average DAR 3.93) VH: QVQLVQSGAEVVKPGASVKISCKASGYTFTAYYMHWVKQSPVQSLEWIGLVNPYNGFSSYNQKFQGKASLTVDKSSSTAYMELHSLTSEDSAVYYCAREFYGYRYFDVWGQGTAVTVSS VL: not shown	8.1	1.1	7
hu2H11-PEG4-NHAc-DM4 (DAR 5.3) (antibody, V domains shown, DM4 through PEG4-NHAc linker on lysine residues, sites not given; average DAR 5.3) VH: QVQLVQSGAEVVKPGASVKISCKASGYTFTAYYMHWVKQSPVQSLEWIGLVNPYNGFSSYNQKFQGKASLTVDKSSSTAYMELHSLTSEDSAVYYCAREFYGYRYFDVWGQGTAVTVSS VL: not shown	27.4	0.2	114
hu2H11R35R74-PEG4-NHAc-DM4 (DAR 5.5) (antibody, V domains shown, DM4 through PEG4-NHAc linker on lysine residues, sites not given; average DAR 5.5) VH: QVQLVQSGAEVVKPGASVKISCKASGYTFTAYYMHWVKQSPVQSLEWIGLVNPYNGFSSYNQKFQGKASLTVDRSSSTAYMELHSLTSEDSAVYYCAREFYGYRYFDVWGQGTAVTVSS VL: not shown	80.8	0.06	1350
hu2H11R35R74-PEG4-Mal-DM4 (DAR 6.1) (antibody, V domains shown, DM4 through PEG4-Mal linker on lysine residues, sites not given; average DAR 6.1) VH: QVQLVQSGAEVVKPGASVKISCKASGYTFTAYYMHWVKQSPVQSLEWIGLVNPYNGFSSYNQKFQGKASLTVDRSSSTAYMELHSLTSEDSAVYYCAREFYGYRYFDVWGQGTAVTVSS VL: not shown	25.1	0.1	228
hu2H11R35R74-SPDB-DM4 (DAR 3.97) (antibody, V domains shown, DM4 through SPDB linker on lysine residues, sites not given; average DAR 3.97) VH: QVQLVQSGAEVVKPGASVKISCKASGYTFTAYYMHWVKQSPVQSLEWIGLVNPYNGFSSYNQKFQGKASLTVDRSSSTAYMELHSLTSEDSAVYYCAREFYGYRYFDVWGQGTAVTVSS VL: not shown	11.5	1.2	9

Biological target: T1, EphA2 receptor on tumor cells
Assay: cell-based or functional assay
Remark: another data set of the same source

Binder	IC50 (M), cytotoxic activity on Lovo cells (WST8, 5 days) [M]
hu2H11R35R74-PEG4-Mal-DM4 (DAR 6.70) (antibody, V domains shown, DM4 through PEG4-Mal linker on lysine residues, sites not given; average DAR 6.70) VH: QVQLVQSGAEVVKPGASVKISCKASGYTFTAYYMHWVKQSPVQSLEWIGLVNPYNGFSSYNQKFQGKASLTVDRSSSTAYMELHSLTSEDSAVYYCAREFYGYRYFDVWGQGTAVTVSS VL: not shown	7.96e-11
hu2H11-PEG4-Mal-DM4 (DAR 6.99) (antibody, V domains shown, DM4 through PEG4-Mal linker on lysine residues, sites not given; average DAR 6.99) VH: QVQLVQSGAEVVKPGASVKISCKASGYTFTAYYMHWVKQSPVQSLEWIGLVNPYNGFSSYNQKFQGKASLTVDKSSSTAYMELHSLTSEDSAVYYCAREFYGYRYFDVWGQGTAVTVSS VL: not shown	1.22e-10

Each binder was assayed against T2, huEphA2-mFc (human, UniProt P29317 24-534, limits assumed) (assay: SPR, Biacore 3000; EphA2-Fc amine-coupled on C1 chip, IgG in flow, 25 C, 1:1 Langmuir fit).
T2 construct: Immobilised antigen of the Biacore experiment; also called EphA2-Fc; extra-cellular domain of EphA2 receptor-Fc; not shown: mouse Fc (mFc)
Method: pH=4.5) was coupled to the matrix of a C1 sensor chip (GE healthcare BR-1005-40) at 10 μl/min using a standard amine coupling protocol with EDC (N-ethyl-N′-[dimethyl-aminopropyl]carbodiimide)/NHS (N-hydroxysuccinimide). The density was controlled at an increased response level of ˜100 response units (RU) in kinetic binding experiments. IgGs were diluted in 0.01 M Hepes, pH 7.4 containing 0.15 M NaCl, 3 mM EDTA, and 0.005% P20. All subsequent dilutions were made in the same buffer. All binding experiments were performed at 25° C. with IgG concentrations typically ranging from 50 to 0.2 nM at a flow rate of 50 μl/min.
Data were collected for approximately 12 min (2 min association time and 10 min dissociation time) and 1 min pulse at 30 μl/min of 1M NaCl, 50 mM NaOH was used to regenerate the surfaces. IgGs were also flowed over an uncoated cell and the sensorgrams from the blank runs were substracted from those obtained with EphA2-Fc coupled chips. Data were fitted to a 1:1 Langmuir binding model with drifting baseline. This algorithm calculates both the kₒₙ and the koff, from which the apparent equilibrium dissociation constant KD, is deduced as the ratio of the two rate constants (koff/kₒₙ).
The affinity constant was first measured with both naked hu2H11 and hu2H11R35R74.

T2 sequence (P29317 24-534 limits assumed): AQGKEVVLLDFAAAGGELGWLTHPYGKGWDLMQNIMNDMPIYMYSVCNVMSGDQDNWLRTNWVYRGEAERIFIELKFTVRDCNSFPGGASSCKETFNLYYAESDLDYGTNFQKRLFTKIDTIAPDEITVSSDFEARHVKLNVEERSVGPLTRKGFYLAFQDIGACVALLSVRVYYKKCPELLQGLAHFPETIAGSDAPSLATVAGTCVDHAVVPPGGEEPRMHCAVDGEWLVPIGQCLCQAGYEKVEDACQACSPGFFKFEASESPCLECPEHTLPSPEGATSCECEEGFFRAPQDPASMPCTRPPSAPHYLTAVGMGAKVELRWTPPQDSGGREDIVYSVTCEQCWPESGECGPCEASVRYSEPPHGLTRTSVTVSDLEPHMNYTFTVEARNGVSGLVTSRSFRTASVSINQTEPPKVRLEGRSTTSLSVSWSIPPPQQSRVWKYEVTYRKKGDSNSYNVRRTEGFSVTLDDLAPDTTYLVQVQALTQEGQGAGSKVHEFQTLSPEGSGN

Binder	Ka [M⁻¹]	Kd [nM]	Ratio (KD against naked hu2H11) [fold]	koff [s⁻¹]	kon [M⁻¹ s⁻¹]
hu2H11R35R74-PEG4-NHAc-DM4 (D/A 6.3) (antibody, V domains shown, DM4 through PEG4-NHAc linker on lysine residues, sites not given; average D/A 6.3 per antibody, Antibody-drug conjugate of hu2H11R35R74; constant regions as for m2) VH: QVQLVQSGAEVVKPGASVKISCKASGYTFTAYYMHWVKQSPVQSLEWIGLVNPYNGFSSYNQKFQGKASLTVDRSSSTAYMELHSLTSEDSAVYYCAREFYGYRYFDVWGQGTAVTVSS VL: not shown	3.55e+09	0.282	0.9	0.00119	4.21e+06
hu2H11R35R74 (antibody, V domains shown, only the variable domains are tied by name to humanized 2H11R35R74; also called humanized 2H11R35R74; naked hu2H11R35R74) VH: QVQLVQSGAEVVKPGASVKISCKASGYTFTAYYMHWVKQSPVQSLEWIGLVNPYNGFSSYNQKFQGKASLTVDRSSSTAYMELHSLTSEDSAVYYCAREFYGYRYFDVWGQGTAVTVSS VL: not shown	4.59e+09	0.218	0.7	0.00115	5.25e+06
hu2H11R35R74-PEG4-NHAc-DM4 (D/A 9.3) (antibody, V domains shown, DM4 through PEG4-NHAc linker on lysine residues, sites not given; average D/A 9.3 per antibody, Antibody-drug conjugate of hu2H11R35R74; constant regions as for m2) VH: QVQLVQSGAEVVKPGASVKISCKASGYTFTAYYMHWVKQSPVQSLEWIGLVNPYNGFSSYNQKFQGKASLTVDRSSSTAYMELHSLTSEDSAVYYCAREFYGYRYFDVWGQGTAVTVSS VL: not shown	2.38e+09	0.421	1.4	0.00129	3.08e+06
hu2H11R35R74-PEG4-NHAc-DM4 (D/A 5.6) (antibody, V domains shown, DM4 through PEG4-NHAc linker on lysine residues, sites not given; average D/A 5.6 per antibody, Antibody-drug conjugate of hu2H11R35R74; constant regions as for m2) VH: QVQLVQSGAEVVKPGASVKISCKASGYTFTAYYMHWVKQSPVQSLEWIGLVNPYNGFSSYNQKFQGKASLTVDRSSSTAYMELHSLTSEDSAVYYCAREFYGYRYFDVWGQGTAVTVSS VL: not shown	3.8e+09	0.263	0.9	0.00115	4.35e+06
hu2H11R35R74-PEG4-NHAc-DM4 (D/A 7.4) (antibody, V domains shown, DM4 through PEG4-NHAc linker on lysine residues, sites not given; average D/A 7.4 per antibody, Antibody-drug conjugate of hu2H11R35R74; constant regions as for m2) VH: QVQLVQSGAEVVKPGASVKISCKASGYTFTAYYMHWVKQSPVQSLEWIGLVNPYNGFSSYNQKFQGKASLTVDRSSSTAYMELHSLTSEDSAVYYCAREFYGYRYFDVWGQGTAVTVSS VL: not shown	3.64e+09	0.275	0.9	0.00123	4.47e+06
hu2H11R35R74-PEG4-NHAc-DM4 (D/A 8.4) (antibody, V domains shown, DM4 through PEG4-NHAc linker on lysine residues, sites not given; average D/A 8.4 per antibody, Antibody-drug conjugate of hu2H11R35R74; constant regions as for m2) VH: QVQLVQSGAEVVKPGASVKISCKASGYTFTAYYMHWVKQSPVQSLEWIGLVNPYNGFSSYNQKFQGKASLTVDRSSSTAYMELHSLTSEDSAVYYCAREFYGYRYFDVWGQGTAVTVSS VL: not shown	3.76e+09	0.266	0.9	0.00111	4.15e+06
hu2H11-PEG4-NHAc-DM4 (D/A 7.5) (antibody, V domains shown, DM4 through PEG4-NHAc linker on surface lysine residues, sites not given; average D/A 7.5 per antibody, Antibody-drug conjugate of hu2H11; also called conjugated hu2H11) VH: QVQLVQSGAEVVKPGASVKISCKASGYTFTAYYMHWVKQSPVQSLEWIGLVNPYNGFSSYNQKFQGKASLTVDKSSSTAYMELHSLTSEDSAVYYCAREFYGYRYFDVWGQGTAVTVSS VL: not shown	6.16e+08	1.62	5.4	0.00242	1.49e+06
hu2H11 (antibody, V domains shown, Humanized IgG made in CHO cells; also called hu53.2H11; humanized 53.2H11) VH: QVQLVQSGAEVVKPGASVKISCKASGYTFTAYYMHWVKQSPVQSLEWIGLVNPYNGFSSYNQKFQGKASLTVDKSSSTAYMELHSLTSEDSAVYYCAREFYGYRYFDVWGQGTAVTVSS VL: not shown	3.39e+09	0.298	1	0.0011	3.71e+06

Biological target: T1, EphA2 receptor on tumor cells
Assay: cell-based or functional assay
Remark: another data set of the same source

Binder	IC50 (pM), + naked hu2H11R35R74 (1 uM), MDA MB231 cells [pM]	IC50 (pM), ADC alone, MDA MB231 cells, 14C thymidine uptake [pM]	ratio of IC50s (+ naked hu2H11R35R74 / ADC alone)
hu2H11-R35R74-Acetyl-DM4 (DAR 6.5) (antibody, V domains shown, DM4 through Acetyl linker, sites not given; average DAR 6.5) VH: QVQLVQSGAEVVKPGASVKISCKASGYTFTAYYMHWVKQSPVQSLEWIGLVNPYNGFSSYNQKFQGKASLTVDRSSSTAYMELHSLTSEDSAVYYCAREFYGYRYFDVWGQGTAVTVSS VL: not shown	19500	185	105
hu2H11-R35R74-PEG4-AcNMe-DM4 (DAR 5.4) (antibody, V domains shown, DM4 through PEG4-AcNMe linker on lysine residues, sites not given; average DAR 5.4) VH: QVQLVQSGAEVVKPGASVKISCKASGYTFTAYYMHWVKQSPVQSLEWIGLVNPYNGFSSYNQKFQGKASLTVDRSSSTAYMELHSLTSEDSAVYYCAREFYGYRYFDVWGQGTAVTVSS VL: not shown	36400	217	168
hu2H11-R35R74-PEG4-AcNH-DM4 (DAR 5.9) (antibody, V domains shown, DM4 through PEG4-AcNH linker on lysine residues, sites not given; average DAR 5.9) VH: QVQLVQSGAEVVKPGASVKISCKASGYTFTAYYMHWVKQSPVQSLEWIGLVNPYNGFSSYNQKFQGKASLTVDRSSSTAYMELHSLTSEDSAVYYCAREFYGYRYFDVWGQGTAVTVSS VL: not shown	29700	147	202
hu2H11-R35R74-PEG4-Allyl-DM4 (DAR 5.3) (antibody, V domains shown, DM4 through PEG4-Allyl linker on lysine residues, sites not given; average DAR 5.3) VH: QVQLVQSGAEVVKPGASVKISCKASGYTFTAYYMHWVKQSPVQSLEWIGLVNPYNGFSSYNQKFQGKASLTVDRSSSTAYMELHSLTSEDSAVYYCAREFYGYRYFDVWGQGTAVTVSS VL: not shown	7820	161	49
hu2H11-R35R74-PEG8-AcNH-DM4 (DAR 4.9) (antibody, V domains shown, DM4 through PEG8-AcNH linker on lysine residues, sites not given; average DAR 4.9) VH: QVQLVQSGAEVVKPGASVKISCKASGYTFTAYYMHWVKQSPVQSLEWIGLVNPYNGFSSYNQKFQGKASLTVDRSSSTAYMELHSLTSEDSAVYYCAREFYGYRYFDVWGQGTAVTVSS VL: not shown	25000	400	62
